Test results: the RNAGym collection of RNA variant scans (doi:10.7554/elife.80360)

B1: CPEB3 Ribozyme (parent)
chain: GGGGGCCACAGCAGAAGCGUUCACGUCGCGGCCCCUGUCAGAUUCUGGUGAAUCUGCGAAUUCUGCUGU

Variants of: B1
Assay: self-cleavage, relative activity (ratio to wild type); higher = more cleavage; co-transcriptional

Variant | self-cleavage
C6G G25A | 0.0449
C6A A59C | 0.221
C6A A59U | 0.202
C6A U26C | 0.333
C6G U21A | 0.246
C7G A60C | 0.196
C6A A15U | 0.176
C6A A15G | 0.467
C7A U36A | 0.127
C6G C45G | 0.376
C7A C63G | 0.303
C7A C63A | 0.149
C7G A40C | 0.17
G5U G56C | 0.163
G5U G56A | 0.137
G5U G56U | 0.104
C6A G50A | 0.708
C7G C35A | 0.13
C6U A15U | 0.698
C6G C35G | 0.0784
C6G G47U | 0.463
C6G U62C | 0.0999
C6A C24U | 0.195
C7G G28A | 0.0296

Variant | self-cleavage
C7G G28C | 0.106
C6G U38G | 0.0812
C6U U69C | 1.06
C7A A60G | 0.272
C6G G41C | 0.118
C6A A13U | 0.346
C6A A13C | 0.262
C6G C12U | 0.271
C6G C12G | 0.253
C6G C12A | 0.102
C6U C27U | 0.256
C6A U43A | 0.294
C6A U43C | 0.412
C6U G17U | 0.209
C6U G56A | 0.962
C6G C39A | 0.173
C6G C39U | 0.168
C6A G48A | 0.712
C6A G48U | 0.776
C6U U36C | 0.969
C6G U20C | 0.0949
C6G U20G | 0.0342
C7A G41A | 0.255
C7A G41U | 0.214

Variant | self-cleavage
C7A U38G | 0.0677
C6A C22G | 0.155
C7A G50C | 0.545
C6A C35U | 0.27
C6A C35G | 0.134
C6G C29A | 0.0897
C7A A23C | 0.407
C6U C24G | 0.345
C6A U49A | 0.641
C7G G17U | 0.0489
C7G G17C | 0.112
C7A G31U | 0.598
C7G A15U | 0.0664
C7G C57A | 0.146
C6G G14U | 0.121
C6A A8G | 0.53
C6A U38A | 0.3
C6U C22A | 0.172
C6U C22U | 0.198
C7A G58C | 0.464
C6G C54A | 0.162
C6G G11U | 0.185
C6G G11A | 0.177
G5U U61G | 0.0827

Variant | self-cleavage
C6G U67A | 0.325
G5U U62C | 0.143
G5U U62G | 0.103
C6U A13G | 0.987
C6U A13U | 0.867
C6U G41U | 0.817
C6G C9U | 0.489
C6U G25A | 0.141
C6U G25U | 0.18
C7A G56U | 0.357
C6G U26C | 0.249
C6A C39G | 0.372
C6G A51C | 0.154
C6G A51G | 0.356
C6U C35G | 0.2
C6U C35U | 0.78
G5U U67C | 0.628
G5U U67A | 0.743
C6G A23U | 0.526
C6G A23G | 0.164
C7G U38G | 0.068
C7G U38C | 0.174
C7G U38A | 0.264
C7A A42C | 0.322

Variant | self-cleavage
C7A A42U | 0.349
C7A A42G | 0.471
C6U G58U | 1.01
C7G C32A | 0.0649
C6G A15G | 0.212
C6G A15U | 0.128
C7A A15U | 0.135
C6G G28C | 0.0369
C6G G28A | 0.0625
C7A G48C | 0.681
C7G C29U | 0.0696
C7G C29G | 0.125
C7G C29A | 0.102
C6U G19U | 0.298
C6U C29A | 0.493
C6U C29U | 0.405
C6G G65C | 0.158
C6G U46C | 0.41
C6G U46G | 0.386
C6G U46A | 0.377
C7A A13C | 0.277
C6G C57G | 0.0373
C6A U64C | 0.304
C6U U62C | 0.811

Variant | self-cleavage
C6U G28U | 0.168
C6U U38A | 0.916
C7G C9U | 0.844
C7G G48C | 0.502
C6A C29G | 0.179
C6G U64G | 0.276
C6G U64C | 0.166
C7A C35A | 0.126
C7A G37A | 0.133
C7A G37C | 0.122
C7A G37U | 0.0728
C6G A60C | 0.0823
C7A G68C | 0.923
C7G U36A | 0.0233
C6U G50U | 0.979
C6U G50C | 1.02
G5U U55C | 0.147
C7A C39G | 0.428
C7A U61A | 0.169
C6U G31A | 1.02
C7G U21G | 0.119
C7G U21A | 0.395
G5U G50A | 0.309
C7G C33U | 0.253

Variant | self-cleavage
C7A G19A | 0.14
C6A A42U | 0.374
C6G A42G | 0.324
C7G C27A | 0.11
C7G A23U | 0.645
C7G A23G | 0.333
C6A G17A | 0.131
C6A C12U | 0.581
C6U C63A | 0.806
G5U U49G | 0.171
C7A A16C | 0.0791
C7A A16G | 0.383
C6U C33A | 0.257
C6U C33G | 0.145
C7G G58A | 0.281
C6A U67G | 0.835
C7A U43G | 0.373
C7A U43A | 0.266
C6U A51G | 1.01
C6U A51U | 0.986
C6G A16G | 0.127
C6U C39A | 0.852
C6A A52C | 0.519
